Experimental data taken from publication PMC12102759 (2025).

B1: PIP5K1C peptide 642-657 (Phosphatidylinositol 4-phosphate 5-kinase type-1 gamma), 16-mer library wild type / TLN1 PTB (TLN1 Phosphotyrosine-binding (PTB) domain, residues 309-401) (parent complex)
chain 1: TDERSWVYSPLHYSAQ
chain 2: GVSFFLVKEKMKGKNKLVPRLLGITKECVMRVDEKTKEVIQEWNLTNIKRWAASPKSFTLDFGDYQDGYYSVQTTEGEQIAQLIAGYIDIILK
B2: CBL peptide 540-555 (E3 ubiquitin-protein ligase CBL), 16-mer library wild type / YES SH3 (YES1 SH3 domain, residues 90-152) (parent complex)
chain 1: RDLPPPPPPDRPYSVG
chain 2: not shown

Variants of: B1
Experiment: proteomic peptide phage display deep mutational scan (ProP-PD DMS): M13 P8 16-mer library selected against immobilised GST-tagged bait for four days (rounds), NGS of the eluted pools per day and pseudo-replica; bait immobilised on MaxiSorp plates (10 µg), library pre-cleared on GST, 2 h binding at 4 °C, five washes; one round per day, days 1-4; value from days 2 and 3

Q: How did the screen value turn out when chain 1 S14E was run?
A: 0.00034 average fractional NGS count over selection days 2 and 3 (reads of this peptide / all reads for the bait, averaged over …

Q: With chain 1 D2R as the variant, how does the screen value read?
A: 0.00137 average fractional NGS count over selection days 2 and 3 (reads of this peptide / all reads for the bait, averaged over …

Q: chain 1 D2A was tested. Which screen value did it give?
A: 0.0142 average fractional NGS count over selection days 2 and 3 (reads of this peptide / all reads for the bait, averaged over …

Q: With chain 1 D2I as the variant, how does the screen value read?
A: 0.000155 average fractional NGS count over selection days 2 and 3 (reads of this peptide / all reads for the bait, averaged over …

Q: chain 1 D2F was tested. Which screen value did it give?
A: 0.00154 average fractional NGS count over selection days 2 and 3 (reads of this peptide / all reads for the bait, averaged over …

Q: For chain 1 D2M, which screen value is on record?
A: 0.000501 average fractional NGS count over selection days 2 and 3 (reads of this peptide / all reads for the bait, averaged over …

Q: For chain 1 D2W, which screen value is on record?
A: 0.0007 average fractional NGS count over selection days 2 and 3 (reads of this peptide / all reads for the bait, averaged over …

Q: For chain 1 D2Y, which screen value is on record?
A: 0.000691 average fractional NGS count over selection days 2 and 3 (reads of this peptide / all reads for the bait, averaged over …

Q: Which screen value does the source give for chain 1 D2L here?
A: 0.0016 average fractional NGS count over selection days 2 and 3 (reads of this peptide / all reads for the bait, averaged over …

Q: Which screen value does the source give for chain 1 D2G here?
A: 0.00241 average fractional NGS count over selection days 2 and 3 (reads of this peptide / all reads for the bait, averaged over …

Q: With chain 1 D2H as the variant, how does the screen value read?
A: 0.0024 average fractional NGS count over selection days 2 and 3 (reads of this peptide / all reads for the bait, averaged over …

Q: For chain 1 D2V, which screen value is on record?
A: 0.00155 average fractional NGS count over selection days 2 and 3 (reads of this peptide / all reads for the bait, averaged over …

Q: With chain 1 D2E as the variant, how does the screen value read?
A: 0.00176 average fractional NGS count over selection days 2 and 3 (reads of this peptide / all reads for the bait, averaged over …

Q: With chain 1 W6F as the variant, how does the screen value read?
A: 0.000288 average fractional NGS count over selection days 2 and 3 (reads of this peptide / all reads for the bait, averaged over …

Q: Which screen value does the source give for chain 1 W6P here?
A: 0.000161 average fractional NGS count over selection days 2 and 3 (reads of this peptide / all reads for the bait, averaged over …

Q: chain 1 W6V was tested. Which screen value did it give?
A: 0.00015 average fractional NGS count over selection days 2 and 3 (reads of this peptide / all reads for the bait, averaged over …

Q: For chain 1 W6N, which screen value is on record?
A: 0.00011 average fractional NGS count over selection days 2 and 3 (reads of this peptide / all reads for the bait, averaged over …

Q: With chain 1 A15P as the variant, how does the screen value read?
A: 0.00282 average fractional NGS count over selection days 2 and 3 (reads of this peptide / all reads for the bait, averaged over …

Q: Which screen value does the source give for chain 1 A15I here?
A: 0.000328 average fractional NGS count over selection days 2 and 3 (reads of this peptide / all reads for the bait, averaged over …

Q: How did the screen value turn out when chain 1 A15M was run?
A: 0.00017 average fractional NGS count over selection days 2 and 3 (reads of this peptide / all reads for the bait, averaged over …

Q: How did the screen value turn out when chain 1 A15S was run?
A: 0.001 average fractional NGS count over selection days 2 and 3 (reads of this peptide / all reads for the bait, averaged over …

Q: For chain 1 S5P, which screen value is on record?
A: 0.00403 average fractional NGS count over selection days 2 and 3 (reads of this peptide / all reads for the bait, averaged over …

Q: chain 1 S5R was tested. Which screen value did it give?
A: 0.00066 average fractional NGS count over selection days 2 and 3 (reads of this peptide / all reads for the bait, averaged over …

Q: Which screen value does the source give for chain 1 S5I here?
A: 0.00725 average fractional NGS count over selection days 2 and 3 (reads of this peptide / all reads for the bait, averaged over …

Q: Which screen value does the source give for chain 1 S5Q here?
A: 0.000811 average fractional NGS count over selection days 2 and 3 (reads of this peptide / all reads for the bait, averaged over …

Q: For chain 1 S5L, which screen value is on record?
A: 0.00637 average fractional NGS count over selection days 2 and 3 (reads of this peptide / all reads for the bait, averaged over …

Q: With chain 1 S5N as the variant, how does the screen value read?
A: 0.000275 average fractional NGS count over selection days 2 and 3 (reads of this peptide / all reads for the bait, averaged over …

Q: How did the screen value turn out when chain 1 S5H was run?
A: 0.00161 average fractional NGS count over selection days 2 and 3 (reads of this peptide / all reads for the bait, averaged over …

Q: For chain 1 S5D, which screen value is on record?
A: 0.00879 average fractional NGS count over selection days 2 and 3 (reads of this peptide / all reads for the bait, averaged over …

Q: With chain 1 S5G as the variant, how does the screen value read?
A: 0.000211 average fractional NGS count over selection days 2 and 3 (reads of this peptide / all reads for the bait, averaged over …

Q: chain 1 S5K was tested. Which screen value did it give?
A: 0.00079 average fractional NGS count over selection days 2 and 3 (reads of this peptide / all reads for the bait, averaged over …

Q: With chain 1 Y8S as the variant, how does the screen value read?
A: 0.00106 average fractional NGS count over selection days 2 and 3 (reads of this peptide / all reads for the bait, averaged over …

Q: How did the screen value turn out when chain 1 Y8M was run?
A: 0.00363 average fractional NGS count over selection days 2 and 3 (reads of this peptide / all reads for the bait, averaged over …

Q: For chain 1 Y8H, which screen value is on record?
A: 0.0119 average fractional NGS count over selection days 2 and 3 (reads of this peptide / all reads for the bait, averaged over …

Q: Which screen value does the source give for chain 1 Y8L here?
A: 0.0129 average fractional NGS count over selection days 2 and 3 (reads of this peptide / all reads for the bait, averaged over …

Q: chain 1 Y8W was tested. Which screen value did it give?
A: 0.004 average fractional NGS count over selection days 2 and 3 (reads of this peptide / all reads for the bait, averaged over …

Q: Which screen value does the source give for chain 1 Y8T here?
A: 0.0121 average fractional NGS count over selection days 2 and 3 (reads of this peptide / all reads for the bait, averaged over …

Q: For chain 1 Y8E, which screen value is on record?
A: 0.002 average fractional NGS count over selection days 2 and 3 (reads of this peptide / all reads for the bait, averaged over …

Q: How did the screen value turn out when chain 1 Y8G was run?
A: 0.000458 average fractional NGS count over selection days 2 and 3 (reads of this peptide / all reads for the bait, averaged over …

Q: Which screen value does the source give for chain 1 Y8I here?
A: 0.00147 average fractional NGS count over selection days 2 and 3 (reads of this peptide / all reads for the bait, averaged over …

Q: How did the screen value turn out when chain 1 Y8A was run?
A: 0.00167 average fractional NGS count over selection days 2 and 3 (reads of this peptide / all reads for the bait, averaged over …

Q: How did the screen value turn out when chain 1 R4W was run?
A: 0.000409 average fractional NGS count over selection days 2 and 3 (reads of this peptide / all reads for the bait, averaged over …

Q: How did the screen value turn out when chain 1 R4Y was run?
A: 0.00355 average fractional NGS count over selection days 2 and 3 (reads of this peptide / all reads for the bait, averaged over …

Q: chain 1 R4A was tested. Which screen value did it give?
A: 0.00627 average fractional NGS count over selection days 2 and 3 (reads of this peptide / all reads for the bait, averaged over …

Q: With chain 1 R4D as the variant, how does the screen value read?
A: 0.0132 average fractional NGS count over selection days 2 and 3 (reads of this peptide / all reads for the bait, averaged over …

Q: With chain 1 R4M as the variant, how does the screen value read?
A: 0.00101 average fractional NGS count over selection days 2 and 3 (reads of this peptide / all reads for the bait, averaged over …

Q: Which screen value does the source give for chain 1 R4G here?
A: 0.00304 average fractional NGS count over selection days 2 and 3 (reads of this peptide / all reads for the bait, averaged over …

Variants of: B2
Experiment: as above

Q: chain 1 P8M was tested. Which screen value did it give?
A: 0.00164 average fractional NGS count over selection days 2 and 3 (reads of this peptide / all reads for the bait, averaged over …

Q: With chain 1 P8V as the variant, how does the screen value read?
A: 0.0212 average fractional NGS count over selection days 2 and 3 (reads of this peptide / all reads for the bait, averaged over …

Q: How did the screen value turn out when chain 1 Y13L was run?
A: 0.00594 average fractional NGS count over selection days 2 and 3 (reads of this peptide / all reads for the bait, averaged over …

Q: With chain 1 Y13A as the variant, how does the screen value read?
A: 0.00126 average fractional NGS count over selection days 2 and 3 (reads of this peptide / all reads for the bait, averaged over …

Q: Which screen value does the source give for chain 1 L3A here?
A: 0.000233 average fractional NGS count over selection days 2 and 3 (reads of this peptide / all reads for the bait, averaged over …

Q: With chain 1 P7T as the variant, how does the screen value read?
A: 0.00618 average fractional NGS count over selection days 2 and 3 (reads of this peptide / all reads for the bait, averaged over …

Q: How did the screen value turn out when chain 1 P7R was run?
A: 0.000229 average fractional NGS count over selection days 2 and 3 (reads of this peptide / all reads for the bait, averaged over …

Q: For chain 1 P7F, which screen value is on record?
A: 0.00308 average fractional NGS count over selection days 2 and 3 (reads of this peptide / all reads for the bait, averaged over …

Q: chain 1 R1T was tested. Which screen value did it give?
A: 0.000703 average fractional NGS count over selection days 2 and 3 (reads of this peptide / all reads for the bait, averaged over …

Q: Which screen value does the source give for chain 1 R1L here?
A: 0.000379 average fractional NGS count over selection days 2 and 3 (reads of this peptide / all reads for the bait, averaged over …

Q: How did the screen value turn out when chain 1 R1F was run?
A: 0.000504 average fractional NGS count over selection days 2 and 3 (reads of this peptide / all reads for the bait, averaged over …

Q: For chain 1 P6Q, which screen value is on record?
A: 0.000768 average fractional NGS count over selection days 2 and 3 (reads of this peptide / all reads for the bait, averaged over …

Q: For chain 1 P6F, which screen value is on record?
A: 0.00211 average fractional NGS count over selection days 2 and 3 (reads of this peptide / all reads for the bait, averaged over …

Q: For chain 1 P6M, which screen value is on record?
A: 0.0066 average fractional NGS count over selection days 2 and 3 (reads of this peptide / all reads for the bait, averaged over …

Q: How did the screen value turn out when chain 1 P12I was run?
A: 0.00216 average fractional NGS count over selection days 2 and 3 (reads of this peptide / all reads for the bait, averaged over …

Q: For chain 1 D2Q, which screen value is on record?
A: 0.00168 average fractional NGS count over selection days 2 and 3 (reads of this peptide / all reads for the bait, averaged over …

Q: Which screen value does the source give for chain 1 D2H here?
A: 0.000405 average fractional NGS count over selection days 2 and 3 (reads of this peptide / all reads for the bait, averaged over …

Q: Which screen value does the source give for chain 1 D10H here?
A: 0.00429 average fractional NGS count over selection days 2 and 3 (reads of this peptide / all reads for the bait, averaged over …

Q: For chain 1 D10M, which screen value is on record?
A: 0.00163 average fractional NGS count over selection days 2 and 3 (reads of this peptide / all reads for the bait, averaged over …

Q: Which screen value does the source give for chain 1 P5K here?
A: 0.0018 average fractional NGS count over selection days 2 and 3 (reads of this peptide / all reads for the bait, averaged over …

Q: Which screen value does the source give for chain 1 P5R here?
A: 0.00132 average fractional NGS count over selection days 2 and 3 (reads of this peptide / all reads for the bait, averaged over …

Q: How did the screen value turn out when chain 1 P9S was run?
A: 0.000868 average fractional NGS count over selection days 2 and 3 (reads of this peptide / all reads for the bait, averaged over …

Q: chain 1 P4E was tested. Which screen value did it give?
A: 0.000136 average fractional NGS count over selection days 2 and 3 (reads of this peptide / all reads for the bait, averaged over …

Q: How did the screen value turn out when chain 1 V15I was run?
A: 7.73e-05 average fractional NGS count over selection days 2 and 3 (reads of this peptide / all reads for the bait, averaged over …

Q: For chain 1 V15A, which screen value is on record?
A: 0.00486 average fractional NGS count over selection days 2 and 3 (reads of this peptide / all reads for the bait, averaged over …

Q: chain 1 V15G was tested. Which screen value did it give?
A: 0.000446 average fractional NGS count over selection days 2 and 3 (reads of this peptide / all reads for the bait, averaged over …

Q: With chain 1 V15W as the variant, how does the screen value read?
A: 0.0167 average fractional NGS count over selection days 2 and 3 (reads of this peptide / all reads for the bait, averaged over …

Q: chain 1 V15M was tested. Which screen value did it give?
A: 0.00453 average fractional NGS count over selection days 2 and 3 (reads of this peptide / all reads for the bait, averaged over …
